Measurements reported in patent publication US11994512B2, “Single-cell genomic methods to generate ex vivo cell systems that recapitulate in vivo biology with improved fidelity” (Massachusetts Institute of Technology, priority 2018, dated 2024).

B1: Q9CPY1 (protein, UniProt Q9CPY1 1-128, looked up)
chain: MAGSVPWAASRRLWGWVPSACRSFSLGVPRLAFVRLTLPPPKVVDRWNEKRALFGVYDNIGILGNFEKHPKELIKGPVWLRGWRGNELQRCVRKKKFVGNRMFIEDLHNLNKRISYLYKHFNRHGKYR
modifications: full-length
B2: Q9CXS4 (protein, UniProt Q9CXS4 1-252, looked up)
chain: MRRTRSAVATGPREQRRSGATGGLSGGESRAQRSRSRTRAGAGGGGGAVGPQPSAKPRPKPPPRAQEAAAEEPPPAVTPAASVSALDLGEQRERWETFQKRQRLSFEGAAKLLLDTFEYQGLVKHTGGCHCGAVRFEVWASADLHIFDCNCSICKKKQNRHFIVPASRFKLLKGAESITTYTFNTHKAQHTFCKRCGVQSFYTPRSNPGGFGIAPHCLDEGTVRSVVTEEFNGSDWERAMKEHKTIKNMSKE
modifications: full-length
B3: Q9CQU5 (protein, UniProt Q9CQU5 1-252, looked up)
chain: MADAEKNAVAEKNNAVATKEVLAEAAAILEPVGLQEEAELPAKIMEEFMRNSRKKDKLLCSQLQVVNFLQTFLAQEDTEQSPDALASEDASRQKATETKEQWKDMKATYMDHVDVIKCALSEALPQVKEAHRKYTELQKAFEQLEAKKRVLEEKLQLAQKQWVLQQKRLQNLTKISAEVKRRRKRALEKLDGSHQELETLKQQAGQEQEKLQRNQSYLQLLCSLQNKLVISEGKAEDKDVKGRALTAKSKSP
modifications: full-length
B4: Q9CVI2 (protein, UniProt Q9CVI2 1-245, looked up)
chain: MGKRDNRVAYMNPIAMARSRGPIQSSGPTIQDYLNRPRPTWEEVKEQLEKKKKGSKALAEFEEKMNENWKKELEKHREKLLSGNESSSKKRQKKKKEKKKSGRYSSSSSSSSDSSSSSSDSEDEDKKQTKRRKKKKSRCHKSPESSGSDSASDSKDGSKKKKKSKDVTEREKDTKGLSKKRKMYEDKPLSSESLSESDCGEVQAKRKKSGEERERTTDKAKKRRKHKKHSKKKKKKAASSSSDSP
modifications: full-length
B5: Q9CWY4 (protein, UniProt Q9CWY4 1-129, looked up)
chain: MQSPLTIPVPVPVLRLPRGPDGFSRGFASDGRRTILRPEVGEGHIQDPPESQEQRARATLRERYLRSLLAMVGHPVSFTLHEGVHVTAQFGATDLDVANFYVSQLQTPIGVQAEALLRCSDIISYSFKL
modifications: full-length
B6: Q9CXC3 (protein, UniProt Q9CXC3 1-338, looked up)
chain: MKLPLTFCRLLSRLNRFSVKASPPVSFSTFSYLCSQKKKNSYEAVDQAKYSRLVRSVLSRGPAQTPESLFKEDDVLYGPVSKHKAAEPEPQARVPQHCFPIFNEERTGKPHTDASSSPLKIPLQRNSIPSVTRILQQTMPPEQSFFLERWKERMVLELGEDGFAEYTSNVFLQGKQFHKALESILSPQENLTGGEEHPQCGYIESIQHILTEISGVQALESAVQHEALKYVGLLDCVAEYRGKLCVIDWKTSEKPKPLIRNTYDNPLQVVAYMGAVNHDAHYSFQVQCGLIVVAYKDGSPAHPHFMDEELCSKYWAKWLLRLEEYTEKQKNLSAPEPA
modifications: full-length
B7: Q9D3P9 (protein, UniProt Q9D3P9 1-169, looked up)
chain: MRGMNLQLVCLTLLAFSSWSLCSDSEEDVRALEADLLTNMHTSKISKASPPSWKMTLLNVCSLINNVNSPAEEAGDMHDDDLVGKRKLPLVLDGFSLEAMLTIFQLQKICRSRAFQHWEIIQEDILDNVNDKNEKEEVIKRKIPYILKRQLYENKPRRPYILKRGSYYY
modifications: full-length
B8: Q9D816 (protein, UniProt Q9D816 1-490, looked up)
chain: MDPVLVLVLTLSCLLLLSLWRQNSGRGKLPPGPTPFPIIGNILQIDIKNISKSFNYFSKVYGPVFTLYFGSKPTVVVHGYEAVKEALDDLGEEFSGRGSFQIFERINNDLGVIFSNGTKWKELRRFSIMTLRSFGMGKRSIEDRIQEEASCLVEELRKANGSLCDPTFILSCAPSNVICSVIFHNRFDYKDEKFLNLMERLNENFKILNSPWMQVYNALPTLINYLPGSHNKVIKNFTEIKSYILGRVKEHQETLDMDNPRDFIDCFLIKMEQEKHNPHSEFTIESLMATVTDIFVAGTETTNITLRYGLLLLLKHTEVTAKVQAEIDHVIGRHRSPCMQDRTRMPYTDAMVHEIQRYIDLIPNNVPHAATCNVRFRSYFIPKGTELVTSLTSVLHDDKEFPNPEVFDPGHFLDENGNFKKSDYFMPFSIGKRMCVGEALARTELFLILTTILQNFNLKSLVDTKDIDTTPVANTFGRVPPSYQLYFIPR
modifications: full-length
B9: Q9CZT6 (protein, UniProt Q9CZT6 1-276, looked up)
chain: MADDLGDEWWENQPAAASSPEQSGGEEGGDTEMTQQDTAPVPEKTQQPTECFLTQTKEPKAEDSRKTRKWKKKKISDILAKSEPKPGTPEDLQKLIRDHYSSSRSVIELEELHLPDSCFLKANDLTHSLSSYLKEICPKWVKLRKTHNEKKSVLMLILCSSAVRALELIRSLTAFKGDAKVMKLFAKHIKVQEQVKLLEKRVIHLGVGTPGRIKELVKQDGLHLNPLKFLVFDWNWRDQKLRRMMDIPEIRKEVFELLDMGVFSLCKSDSLKLGLF
modifications: full-length
B10: Q9D6X6 (protein, UniProt Q9D6X6 1-382, looked up)
chain: MAGIPGLFILLVLLCVFMQVSPYTVPWKPTWPAYRLPVVLPQSTLNLAKADFDAKAKLEVSSSCGPQCHKGTPLPTYEEAKQYLSYETLYANGSRTETRVGIYILSNGEGRARGRDSEATGRSRRKRQIYGYDGRFSIFGKDFLLNYPFSTSVKLSTGCTGTLVAEKHVLTAAHCIHDGKTYVKGTQKLRVGFLKPKYKDGAGGDNSSSSAMPDKMKFQWIRVKRTHVPKGWIKGNANDIGMDYDYALLELKKPHKRQFMKIGVSPPAKQLPGGRIHFSGYDNDRPGNLVYRFCDVKDETYDLLYQQCDAQPGASGSGVYVRMWKRPQQKWERKIIGIFSGHQWVDMNGSPQDFNVAVRITPLKYAQICYWIKGNYLDCREG
modifications: full-length
B11: Q9D009 (protein, UniProt Q9D009 1-231, looked up)
chain: MSLPVVRLVWLGRVHYSELLALQEHWLRRLQADPRPGTLSGTKAGVLLVCEPAGPVYTGGLRGGLTPEETTRLRALGAEVRATGRGGLATFHGPGQLLCHPVLDLRLLGLRLRTHVAALEACAVRLCELRGLQGARARPPPYTGVWLGERKICAIGVRCGRHITSHGLALNCSTDLTWFEHIVPCGLVGTGVTSLSEALQRLVTVDEVMPSFLVAFKETFKCTLISEDSPS
modifications: full-length
B12: Q9D6F4 (protein, UniProt Q9D6F4 1-552, looked up)
chain: MVSVQKVPAIALCSGVSLALLHFLCLAACLNESPGQNSKDEKLCPENFTRILDSLLDGYDNRLRPGFGGPVTEVKTDIYVTSFGPVSDVEMEYTMDVFFRQTWIDKRLKYDGPIEILRLNNMMVTKVWTPDTFFRNGKKSVSHNMTAPNKLFRIMRNGTILYTMRLTISAECPMRLVDFPMDGHACPLKFGSYAYPKSEMIYTWTKGPEKSVEVPKESSSLVQYDLIGQTVSSETIKSITGEYIVMTVYFHLRRKMGYFMIQTYIPCIMTVILSQVSFWINKESVPARTVFGITTVLTMTTLSISARHSLPKVSYATAMDWFIAVCFAFVFSALIEFAAVNYFTNIQMQKAKKKISKPPPEVPAAPVLKEKHTETSLQNTHANLNMRKRTNALVHSESDVKSRTEVGNHSSKTSAVQESSEATPKAHLASSPNPFSRANAAETMSAAARGLSSAASPSPHGTLRPASLGSASTRPAFGSRLGRIKTTVNTTGAAGNVSATPPPPAPPPSGSGTSKIDKYARILFPVTFGAFNMVYWVVYLSKDTMEKSESLM
modifications: full-length
B13: Q9D1C1 (protein, UniProt Q9D1C1 1-179, looked up)
chain: MASQNRDPAAASVAAVRKGAEPCGGAARGPVGKRLQQELMILMTSGDKGISAFPESDNLFKWVGTIHGAAGTVYEDLRYKLSLEFPSGYPYNAPTVKFLTPCYHPNVDTQGNICLDILKDKWSALYDVRTILLSIQSLLGEPNIDSPLNTHAAELWKNPTAFKKYLQETYSKQVSSQDP
modifications: full-length

System: intracellular proteome of ENR+CD and ENR organoids
Experiment: LC-MS/MS TMT proteomics of ENR+CD versus ENR organoids
Assay type: cell-based, C57BL/6 mice
Details: ENR+CD versus ENR organoids, sample pairs in aggregate (n=4, 2 technical replicates from two biological donors)

| Molecule | Average logFC |
| --- | --- |
| B1 | −1.278 |
| B2 | −1.1404 |
| B3 | −1.13 |
| B4 | −1.186 |
| B5 | −1.168 |
| B6 | −1.487 |
| B7 | 1.285 |
| B8 | 1.132 |
| B9 | −1.131 |
| B10 | 1.179 |
| B11 | −2.176 |
| B12 | 1.263 |
| B13 | −1.255 |

Same assay, conditions: protein abundance ratio ENR+CD versus ENR organoids, sample pair M1-1; LC-MS/MS TMT proteomics

| Molecule | M1-1 Log2 Median Normalized |
| --- | --- |
| B1 | −0.801 |
| B2 | −1.106 |
| B3 | −1.159 |
| B4 | −1.385 |
| B5 | −0.742 |
| B6 | −1.486 |
| B7 | 1.731 |
| B8 | 0.664 |
| B9 | −1.275 |
| B10 | 1.521 |
| B11 | −0.836 |
| B12 | 0.695 |
| B13 | −1.316 |

Same assay, conditions: protein abundance ratio ENR+CD versus ENR organoids, sample pair M1-2; LC-MS/MS TMT proteomics

| Molecule | M1-2 Log2 Median Normalized |
| --- | --- |
| B1 | −0.766 |
| B2 | −1.141 |
| B3 | −0.699 |
| B4 | −1.072 |
| B5 | −0.855 |
| B6 | −0.854 |
| B7 | 0.439 |
| B8 | 1.318 |
| B9 | −0.965 |
| B10 | 1.393 |
| B11 | −2.401 |
| B12 | 0.98 |
| B13 | −0.925 |

Same assay, conditions: protein abundance ratio ENR+CD versus ENR organoids, sample pair M2-1; LC-MS/MS TMT proteomics

| Molecule | M2-1 Log2 Median Normalized |
| --- | --- |
| B1 | −2.0015 |
| B2 | −0.9445 |
| B3 | −1.1625 |
| B4 | −1.0115 |
| B5 | −1.6895 |
| B6 | −1.7905 |
| B7 | 0.8595 |
| B8 | 0.5735 |
| B9 | −0.8705 |
| B10 | 0.7475 |
| B11 | −2.1745 |
| B12 | 1.4175 |
| B13 | −1.1505 |

Same assay, conditions: protein abundance ratio ENR+CD versus ENR organoids, sample pair M2-2; LC-MS/MS TMT proteomics

| Molecule | M2-2 Log2 Median Normalized |
| --- | --- |
| B1 | −1.543 |
| B2 | −1.649 |
| B3 | −1.13 |
| B4 | −1.275 |
| B5 | −1.387 |
| B6 | −1.7 |
| B7 | 2.111 |
| B8 | 1.971 |
| B9 | −1.413 |
| B10 | 1.055 |
| B11 | −2.621 |
| B12 | 1.959 |
| B13 | −1.63 |

Same assay, conditions: up = enriched in ENR+CD, down = enriched in ENR; FDR<0.05 and log fold change cut-off

| Molecule | change |
| --- | --- |
| B1 | down |
| B2 | down |
| B3 | down |
| B4 | down |
| B5 | down |
| B6 | down |
| B7 | up |
| B8 | up |
| B9 | down |
| B10 | up |
| B11 | down |
| B12 | up |
| B13 | down |
